Patent US20110086770A1 (ANAPHORE, published 2011)

T1: recombinant human IL-23R/Fc chimera (R&D Systems) (human, UniProt Q5VWK5 24-353)
T1 construct: bought; also called human IL-23R/Fc fusion protein; rhIL23RFc
T1 sequence (looked up): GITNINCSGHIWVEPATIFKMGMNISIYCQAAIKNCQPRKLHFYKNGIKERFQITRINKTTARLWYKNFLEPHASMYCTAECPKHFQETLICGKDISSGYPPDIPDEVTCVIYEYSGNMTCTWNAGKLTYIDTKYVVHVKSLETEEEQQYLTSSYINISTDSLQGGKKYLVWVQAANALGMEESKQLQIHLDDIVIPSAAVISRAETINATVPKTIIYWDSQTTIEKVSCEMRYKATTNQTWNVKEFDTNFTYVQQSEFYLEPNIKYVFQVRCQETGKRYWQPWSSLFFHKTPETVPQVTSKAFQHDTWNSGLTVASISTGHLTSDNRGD


Biological target: T1, recombinant human IL-23R/Fc chimera …
Assay: competition ELISA against IL-23
Experimental: Assays were performed generally as follows. Individual wells in Immulon HB2 plates were incubated overnight at 4° C. with 100 μL PBS containing 100 ng of an anti-human IgG Fc (R&D MAB 110 clone 97924). Plates were washed five times with PBS/0.05% Tween 20, and wells were incubated for 1.5 h at RT with 100 μL each of PBS containing 50 ng of recombinant human IL-23R/Fc. […] Competitor was included at a final concentration of 1 μg/mL. After incubation, plates were washed as described and wells were incubated for 40 min at RT with 100 μL each of PBS containing a 1:5000 dilution of streptavidin-HRP conjugate (Pierce catalog no. 21130). After washing, wells were incubated with 100 μL each of TMB (BioFX Lab catalog no. TMBH-1000-0) for up to 30 min at RT. Reactions were stopped with an equal volume of 0.2 M sulfuric acid.

| Binder | Ratio IC50 to 056-53.H4E IC50 [ratio] |
| --- | --- |
| 101-51-1A3 ATRIMER (designed binder, ATRIMER is a homotrimer; one protomer is given., not shown: C-terminal purification tag: Myc/His6 (pANA4) or HA-StrepII (pANA10)) EPPTQKPKKIVNAKKDVVNTKMFEELKSRLDTLAQEVALLKEQQALQTVCLKGTKVHMKCFLAFTQTKTFHEASEDCISRGGTLSTPQTGSENDALYEYLRQSVGNEAEIWLGLNGSALTNTWVDMTGARIAYKNWEHQPVYQPGGGWGVFGENCAVLSGAANGKWFDKRCRDQLPYICQFGIV | 1.6 |
| 105-08-1C9 ATRIMER (designed binder, not shown: C-terminal tag: His/Myc (pANA4) or HA-StrepII (pANA10)) EPPTQKPKKIVNAKKDVVNTKMFEELKSRLDTLAQEVALLKEQQALQTVCLKGTKVHMKCFLAFTQTKTFHEASEDCISRGGTLSTPQTGSENDALYEYLRQSVGNEAEIWLGLNGSTLTDTWVDMTGARIAYKNWETEITAQPDGGFGYFGENCAVLSGAANGKWFDKRCRDQLPYICQFGIV | 7.4 |
| 101-51-1A6 ATRIMER (designed binder, ATRIMER is a homotrimer; one protomer is given., not shown: C-terminal purification tag: Myc/His6 (pANA4) or HA-StrepII (pANA10)) EPPTQKPKKIVNAKKDVVNTKMFEELKSRLDTLAQEVALLKEQQALQTVCLKGTKVHMKCFLAFTQTKTFHEASEDCISRGGTLSTPQTGSENDALYEYLRQSVGNEAEIWLGLNGSALTNTWVDMTGARIAYKNWENNLSAQPRGGFGYFGENCAVLSGAANGKWFDKRCRDQLPYICQFGIV | 2.6 |
| 105-08-1B7 ATRIMER (designed binder, Forms a homotrimer (ATRIMER) through the tetranectin coiled coil; one protomer is given., not shown: C-terminal tag) EPPTQKPKKIVNAKKDVVNTKMFEELKSRLDTLAQEVALLKEQQALQTVCLKGTKVHMKCFLAFTQTKTFHEASEDCISRGGTLSTPQTGSENDALYEYLRQSVGNEAEIWLGLNGSPRTDTWVDMTGARIAYKNWETEITAQPDGGFGYFGENCAVLSGAANGKWFDKRCRDQLPYICQFGIV | 4.1 |
| 105-08-1A10 ATRIMER (designed binder, Forms a homotrimer (ATRIMER) through the tetranectin coiled coil; one protomer is given., not shown: C-terminal tag) EPPTQKPKKIVNAKKDVVNTKMFEELKSRLDTLAQEVALLKEQQALQTVCLKGTKVHMKCFLAFTQTKTFHEASEDCISRGGTLSTPQTGSENDALYEYLRQSVGNEAEIWLGLNGSSITDTWVDMTGARIAYKNWETEITAQPDGGWGYFGENCAVLSGAANGKWFDKRCRDQLPYICQFGIV | 4.3 |
| 105-08-1A4 ATRIMER (designed binder) EPPTQKPKKIVNAKKDVVNTKMFEELKSRLDTLAQEVALLKEQQALQTVCLKGTKVHMKCFLAFTQTKTFHEASEDCISRGGTLSTPQTGSENDALYEYLRQSVGNEAEIWLGLNGSAVTNTWVDMTGARIAYKNWETEITAQPDGGFGYFGENCAVLSGAANGKWFDKRCRDQLPYICQFGIV | 1.6 |
| 105-08-1A8 ATRIMER (designed binder, not shown: C-terminal tag: Myc/His6 (pANA4) or HA-StrepII (pANA10); A Ser left at the ompA junction may also sit at the N-terminus) EPPTQKPKKIVNAKKDVVNTKMFEELKSRLDTLAQEVALLKEQQALQTVCLKGTKVHMKCFLAFTQTKTFHEASEDCISRGGTLSTPQTGSENDALYEYLRQSVGNEAEIWLGLNGSPRTNTWVDMTGARIAYKNWETEITAQPDGGFGVFGENCAVLSGAANGKWFDKRCRDQLPYICQFGIV | 1.6 |
| 105-08-1B10 ATRIMER (designed binder) EPPTQKPKKIVNAKKDVVNTKMFEELKSRLDTLAQEVALLKEQQALQTVCLKGTKVHMKCFLAFTQTKTFHEASEDCISRGGTLSTPQTGSENDALYEYLRQSVGNEAEIWLGLNGSRHTDTWVDMTGARIAYKNWETEITAQPDGGFGYFGENCAVLSGAANGKWFDKRCRDQLPYICQFGIV | 4.7 |
| 101-51-1A10 ATRIMER (designed binder, ATRIMER is a homotrimer; one protomer is given., not shown: C-terminal purification tag: Myc/His6 (pANA4) or HA-StrepII (pANA10)) EPPTQKPKKIVNAKKDVVNTKMFEELKSRLDTLAQEVALLKEQQALQTVCLKGTKVHMKCFLAFTQTKTFHEASEDCISRGGTLSTPQTGSENDALYEYLRQSVGNEAEIWLGLNGSALTNTWVDMTGARIAYKNWEHPLPPQPSGGFGYFGENCAVLSGAANGKWFDKRCRDQLPYICQFGIV | 8.7 |
| 105-08-1B1 ATRIMER (designed binder, Homotrimer of the given chain (ATRIMER complex).) EPPTQKPKKIVNAKKDVVNTKMFEELKSRLDTLAQEVALLKEQQALQTVCLKGTKVHMKCFLAFTQTKTFHEASEDCISRGGTLSTPQTGSENDALYEYLRQSVGNEAEIWLGLNGSPRTQTWVDMTGARIAYKNWETEITAQPDGGFGYFGENCAVLSGAANGKWFDKRCRDQLPYICQFGIV | 3.3 |
| 105-08-1C11 ATRIMER (designed binder, not shown: C-terminal tag: His/Myc (pANA4) or HA-StrepII (pANA10)) EPPTQKPKKIVNAKKDVVNTKMFEELKSRLDTLAQEVALLKEQQALQTVCLKGTKVHMKCFLAFTQTKTFHEASEDCISRGGTLSTPQTGSENDALYEYLRQSVGNEAEIWLGLNGSSRTDTWVDMTGARIAYKNWETEITAQPDGGFGYFGENCAVLSGAANGKWFDKRCRDQLPYICQFGIV | 2.8 |
| 101-54-4B3 ATRIMER (designed binder) EPPTQKPKKIVNAKKDVVNTKMFEELKSRLDTLAQEVALLKEQQALQTVCLKGTKVHMKCFLAFTQTKTFHEASEDCISRGGTLSTPQTGSENDALYEYLRQSVGNEAEIWLGLNGSALTNTWVDMTGARIAYKNWELPPPGHPQGGFGVFGENCAVLSGAANGKWFDKRCRDQLPYICQFGIV | 1 |
| 105-08-1C3 ATRIMER (designed binder) EPPTQKPKKIVNAKKDVVNTKMFEELKSRLDTLAQEVALLKEQQALQTVCLKGTKVHMKCFLAFTQTKTFHEASEDCISRGGTLSTPQTGSENDALYEYLRQSVGNEAEIWLGLNGSQLTDTWVDMTGARIAYKNWETEITAQPDGGWGYFGENCAVLSGAANGKWFDKRCRDQLPYICQFGIV | 3.6 |
| 105-08-1C2 ATRIMER (designed binder, Forms a homotrimer (ATRIMER) through the tetranectin coiled coil; one protomer is given., not shown: C-terminal tag) EPPTQKPKKIVNAKKDVVNTKMFEELKSRLDTLAQEVALLKEQQALQTVCLKGTKVHMKCFLAFTQTKTFHEASEDCISRGGTLSTPQTGSENDALYEYLRQSVGNEAEIWLGLNGSRATDTWVDMTGARIAYKNWETEITAQPDGGFGYFGENCAVLSGAANGKWFDKRCRDQLPYICQFGIV | 4.1 |
| 101-51-1A8 ATRIMER (designed binder, ATRIMER is a homotrimer; one protomer is given., not shown: C-terminal purification tag: Myc/His6 (pANA4) or HA-StrepII (pANA10)) EPPTQKPKKIVNAKKDVVNTKMFEELKSRLDTLAQEVALLKEQQALQTVCLKGTKVHMKCFLAFTQTKTFHEASEDCISRGGTLSTPQTGSENDALYEYLRQSVGNEAEIWLGLNGSALTNTWVDMTGARIAYKNWERTPPWQPEGGFGYFGENCAVLSGAANGKWFDKRCRDQLPYICQFGIV | 3.7 |
| 101-54-4B6 ATRIMER (designed binder) EPPTQKPKKIVNAKKDVVNTKMFEELKSRLDTLAQEVALLKEQQALQTVCLKGTKVHMKCFLAFTQTKTFHEASEDCISRGGTLSTPQTGSENDALYEYLRQSVGNEAEIWLGLNGSALTNTWVDMTGARIAYKNWEPPGPHHPMGGFGVFGENCAVLSGAANGKWFDKRCRDQLPYICQFGIV | 0.3 |
| 105-08-1C4 ATRIMER (designed binder, Homotrimer of the given chain (ATRIMER complex).) EPPTQKPKKIVNAKKDVVNTKMFEELKSRLDTLAQEVALLKEQQALQTVCLKGTKVHMKCFLAFTQTKTFHEASEDCISRGGTLSTPQTGSENDALYEYLRQSVGNEAEIWLGLNGSTLTDTWVDMTGARIAYKNWETEITAQPDGGWGYFGENCAVLSGAANGKWFDKRCRDQLPYICQFGIV | 3.3 |
| 105-08-1C6 ATRIMER (designed binder) EPPTQKPKKIVNAKKDVVNTKMFEELKSRLDTLAQEVALLKEQQALQTVCLKGTKVHMKCFLAFTQTKTFHEASEDCISRGGTLSTPQTGSENDALYEYLRQSVGNEAEIWLGLNGSALTDTWVDMTGARIAYKNWETEITAQPDGGFGYFGENCAVLSGAANGKWFDKRCRDQLPYICQFGIV | 2 |
| 101-54-4A12 ATRIMER (designed binder) EPPTQKPKKIVNAKKDVVNTKMFEELKSRLDTLAQEVALLKEQQALQTVCLKGTKVHMKCFLAFTQTKTFHEASEDCISRGGTLSTPQTGSENDALYEYLRQSVGNEAEIWLGLNGSRRSGVWVDMTGARIAYKNWEPPGPAHPQGGFGVFGENCAVLSGAANGKWFDKRCRDQLPYICQFGIV | 1.1 |
| 105-08-1A7 ATRIMER (designed binder, Homotrimer of the given chain (ATRIMER complex).) EPPTQKPKKIVNAKKDVVNTKMFEELKSRLDTLAQEVALLKEQQALQTVCLKGTKVHMKCFLAFTQTKTFHEASEDCISRGGTLSTPQTGSENDALYEYLRQSVGNEAEIWLGLNGSVRTNTWVDMTGARIAYKNWETEITAQPDGGFGYFGENCAVLSGAANGKWFDKRCRDQLPYICQFGIV | 2.9 |
| 105-08-1C10 ATRIMER (designed binder) EPPTQKPKKIVNAKKDVVNTKMFEELKSRLDTLAQEVALLKEQQALQTVCLKGTKVHMKCFLAFTQTKTFHEASEDCISRGGTLSTPQTGSENDALYEYLRQSVGNEAEIWLGLNGSSVTNTWVDMTGARIAYKNWETEITAQPDGGWGYFGENCAVLSGAANGKWFDKRCRDQLPYICQFGIV | 5 |
| 101-80-5E8 ATRIMER (designed binder) EPPTQKPKKIVNAKKDVVNTKMFEELKSRLDTLAQEVALLKEQQALQTVCLKGTKVHMKCFLAFTQTKTFHEASEDCISRGGTLSTPQTGSENDALYEYLRQSVGNEAEIWLGLNGSALTNTWVDMTGARIAYKNWEPPEPLHPMGGFGVFGENCAVLSGAANGKWFDKRCRDQLPYICQFGIV | 0.6 |
